Experimental findings from paper PMC5170609 (Molecular Biology of the Cell, 2016) are described below.

Experiment in all cases: ELISA
The target of assay [1] is desmin T453I (recombinant, desminopathy-linked mutant) (UniProt P17661 1-470, T453I).
In assay [2] the target is wild-type full-length desmin (recombinant) (UniProt P17661 1-470).
Assay [3] concerns the target desmin E245D (recombinant, desminopathy-linked mutant) (UniProt P17661 1-470, E245D).

Sequence of wild-type full-length desmin (recombinant) (P17661 whole entry): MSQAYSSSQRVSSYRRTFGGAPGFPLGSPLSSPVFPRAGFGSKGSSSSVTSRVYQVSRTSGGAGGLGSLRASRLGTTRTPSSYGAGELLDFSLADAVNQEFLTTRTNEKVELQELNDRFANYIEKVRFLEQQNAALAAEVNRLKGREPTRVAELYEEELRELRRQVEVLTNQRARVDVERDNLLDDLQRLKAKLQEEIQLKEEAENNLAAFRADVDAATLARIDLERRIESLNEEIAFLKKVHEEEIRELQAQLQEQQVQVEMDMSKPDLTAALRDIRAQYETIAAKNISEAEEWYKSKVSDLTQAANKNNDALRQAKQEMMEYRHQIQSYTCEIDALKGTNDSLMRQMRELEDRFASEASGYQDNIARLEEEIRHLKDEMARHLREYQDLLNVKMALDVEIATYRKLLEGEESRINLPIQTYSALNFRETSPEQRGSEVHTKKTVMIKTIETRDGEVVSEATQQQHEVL
Sequence of desmin E245D (recombinant, desminopathy-linked mutant) (P17661 whole entry E245D): as the sequence (P17661 whole entry) above, with E245D counted along it
Sequence of desmin T453I (recombinant, desminopathy-linked mutant) (P17661 whole entry T453I): as the sequence (P17661 whole entry) above, with T453I counted along it

B1: His-nebulette modules 1–5 (recombinant) (domain or fragment, UniProt O76041 32-213, looked up)
chain: PVIEDLSMELARKCTELISDIRYKEEFKKSKDKCTFVTDSPMLNHVKNIGAFISEAKYKGTIKADLSNSLYKRMPATIDSVFAGEVTQLQSEVAYKQKHDAAKGFSDYAHMKEPPEVKHAMEVNKHQSNISYRKDVQDTHTYSAELDRPDIKMATQISKIISNAEYKKGQGIMNKEPAVIGR
As to B1, the figures for the equilibrium dissociation constant (Kd) in assay [1], in assay [2] and in assay [3] were 3 nM, 16 to 24 nM and 5 to 6 nM, respectively.
